In the supplement of paper PMC10567573:

B1: KCTD10 (parent)
chain: SSKEEQKLIATSNKPAVKLLYNRS
B2: KCNG1 (parent)
chain: AVNLSVSTLPSLREEEEQVRAHAP

Variants of: B1
Assay: protein stability index of a GFP-peptide fusion (GPS, HEK-293T) (PSI 1-6); higher = more stable
Details: c terminus: a fixed tail appended
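Also: lentivirally expressed fusions sorted by FACS into six bins by GFP to DsRed ratio, PSI derived from sequencing read proportions per bin multiplied by bin number.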

Protein stability index of substitutions, site by site:
Q6: N 3.96; D 4.5; W 2.79; Y 4.01; S 3.86; E 4.52; A 4.23; V 3.6; H 4.08; M 3.56; C 4.15; F 3.15; I 3.33; L 3.59; G 3.8; R 3.93; K 3.1; T 4.44; P 4
S1: P 3.98; W 3.08; E 4.49; Q 4.22; F 3.6; T 4.1; R 3.8; M 4.26; A 3.87; N 4.32; I 3.56; K 4.12; G 3.96; V 3.84; C 3.82; H 4.21; L 3.69; D 3.9; Y 3.18
E4: W 3.24; K 3.69; S 3.99; C 3.55; D 4.01; Q 4.06; V 3.5; N 3.87; F 3.6; R 3.66; L 3.52; H 3.09; A 3.3; Y 2.83; T 3.26; M 2.82; P 3.64; G 3.46; I 3.06
E5: V 2.8; A 3.38; C 3.34; D 4.13; R 3.59; L 2.83; Y 2.97; S 3.87; H 3.78; Q 3.83; W 1.79; T 3.82; M 2.97; N 3.7; P 3.56; F 2.26; K 3.35; G 1.71; I 2.97
K7: F 3.02; D 4.49; M 3.3; C 3.86; L 3.21; G 4.45; H 3.85; E 4.4; I 3.28; A 4.1
K3: D 4.5; L 4.07; Q 4.25; E 4.16; C 3.86; R 3.97; P 4.06; S 3.58; I 3.91; W 3.93; M 4.08; F 3.83; T 4.18; G 3.32; Y 3.26; A 4.67; N 4.04; V 3.96; H 4.23
S2: D 4.55; Q 4.25; E 4.43; N 4.16; M 4.13; Y 3.56; P 4.45; A 4.54; V 3.5; C 2.83; W 3.26; G 4.25; L 3.79; F 3.57; K 3.97; T 3.86; I 3.88; H 3.99; R 4.07

Variants of: B2
Assay: as above
Details: c terminus: a fixed tail appended

Protein stability index of substitutions, site by site:
R13: Y 4.67
E15: F 3.52; K 4.82; S 4.8; C 4.23; A 4.2; Q 4.79; L 3.42; D 5.05; T 4.52; H 4.42; V 4.06; R 4.76; Y 3.64; N 4.61; P 4.93; W 3.52; M 4.29; I 3.92; G 4.59
Q18: Y 4.42; V 4.55; W 4.05; D 5.2; F 4.17; C 4.98; L 5; G 5.17; T 4.99; A 4.75; I 4.82; H 4.67; N 4.95; P 5.04; R 4.55; K 4.75; E 5.57; S 5.26; M 4.77
H22: F 4.49; C 4.92; V 4.76; A 5.11
